The values below come from paper PMC7336809, “AcnSP – A Novel Small Protein Regulator of Aconitase Activity in the Cyanobacterium Synechocystis sp. PCC 6803” (Frontiers in Microbiology, 2020).

Data set [1] addresses recombinant Synechocystis 6803 aconitase (AcnB), His-tagged (Synechocystis sp. PCC 6803) (UniProt P74582).
Substrate in data set [2]: O=C(O)/C=C(/CC(=O)O)C(=O)O
The experiment in a line: purified protein. It is filed as biochemical, Synechocystis sp. PCC 6803. The conditions noted are these: 10 mM DTT (reducing), no AcnSP, 50 mM Tris-malate pH 7.5, 30°C, 0.3 mM NADP+, 2 mM Na2EDTA, 10 mM MnCl2.

For the molecule “synthetic AcnSP peptide (aconitase small protein)”, in data set [1], the Kcat of aconitase with 2 nmol AcnSP added to 2 nmol AcnB, oxidizing conditions (−DTT); control without AcnSP 3.46 came out at 3.15 s^–1 and the Kcat of aconitase with 2 nmol AcnSP added to 2 nmol AcnB, reducing conditions (+10 mM DTT); control without AcnSP 14.92 came out at 13.8 s^–1.

B1: recombinant AcnB (aconitase B, Slr0665) (Synechocystis sp. PCC 6803 substr. Kazusa) (protein)
chain: MLQAYRRHVADRQKLGIPPLPLNAQQTTELCELLKNPPEAEKEELMMLLRDRVPPGVDEAAYVKAGFLTAIAKGEVTCPLISGQGAVDLLGTMIGGYNVQSLIELLKSKDTNIASAAATALSKTLLVFDAFNDVLHLSDTNGYAKQVIDAWAEGAWFINKPEVPERITVTVFKVPGETNTDDLSPAPHATTRPDIPLHALAMLEAKMPEGLGTIAELKQKGHPVAYVGDVVGTGSSRKSAINSVLWHIGTDIPFVPNKRAGGYILGGKIAPIFFNTAEDSGALPIECDVNQLNTGDVITIYPREGKITNKAGETITTFQLKPETILDEVRAGGRIPLLIGRALTDKTREALGLSPSPLFVRPTAPADTGKGFTLAQKMVGKACGVQGIRPGTSCEPIMTTVGSQDTTGPMTRDELKELACLGFNADLTLQTFCHTAAYPKPVDIKTHKDLPDFFSTRGGVALRPGDGIIHSWLNRMLLPDTVGTGGDSHTRFPLGISFPAGSGLVAFAAALGVMPLDMPESVLVKFTGELQPGVTLRDIVNAIPWVAMQQGKLTVGKGDKVNVFNGRIMEMEGLPDLKVEQAFELTDATAERSCSGSTIKLSEETVAEYLRSNVVLMKNMIARGYQDARTLLRRIAKMEEWLANPSLMSGDADAEYADVIEVNLDEIKEPIVAAPNDPDNVKLMSECAGDVIHEVFIGSCMTNIGHYRAAAKILEGAGTVKGRLWICPPTRMDEQQLREEGIYGIFAAAGARTEMPGCSLCMGNQARVEDGVTVFSTSTRNFNNRMGKGAQVYLGSAELAAVCALLGKIPTVEEYLAIVSEKVAPFEGELYRYLNFNEIDNFEDFGRVIPLDQMPKIEDILGMPVGAK
notes: full-length (868 aa), His-tagged from pET28a(+) (NdeI/SalI), E. coli BL21 (DE3), Ni-NTA; medium supplemented with Fe-citrate for iron-sulfur centers
What is called Km is the substrate concentration at which the rate is half of its maximum. In general, Vmax refers to the top rate of the reaction or transport when substrate is in excess. One may read the kcat as the number of substrate molecules converted per active site and unit of time at saturation. Consider B1, for which, in data set [2], the Km came to 371 ± 20 µM, the Vmax was determined as 9.04 µmol/min/mg and the turnover number (kcat) is 14.9 s⁻¹.
